Measured values: US20050026827A1, “Octapeptide bombesin analogs” (Societe de Conseils de Recherches et d'Applications …, priority 1987, published 2005)
Like-named read-outs stand apart in the source and are kept apart here. Non-standard residues stand in square brackets, D forms with d. Residues, ends and D or L forms follow the SMILES beside them. No end group written: not given here. *: point of attachment. dPhe(F5) = N[C@H](Cc1c(F)c(F)c(F)c(F)c1F)C(=O)O; X2 = CC(C)C[C@@H](CN[C@@H](CC(C)C)C(N)=O)N*; Sta = CC(C)C[C@H](N)[C@@H](O)CC(=O)O; pGlu = O=C1CC[C@@H](C(=O)O)N1; dNMeA = CN[C@H](C)C(=O)O

Tests used:
[1] = biological target: 3T3 fibroblast bombesin receptors (murine (3T3 murine fibroblasts)) (UniProt P21729)
[2] = biological target: 3T3 fibroblast bombesin receptors (murine (3T3 murine fibroblasts)) (UniProt P21729); test: inhibition of [125I]GRP binding to 3T3 cell membranes
bombesin receptor = biological target: T1, bombesin receptor (Rattus norvegicus, UniProt P52500); test: Displacement of 125I-labeled bombesin from rat pancreatic acini cells; format: binding; conditions: read-out: half-maximal effective dose, displacement of 125I-labeled bombesin
T1 construct: displace ^125I-labeled bombesin from rat pancreatic acini cells; from tissue; host or cells: rat pancreatic acini cells
From the text: D-Phe-Gln-Trp-Ala-Val-N-methyl-D-Ala-His-Leu-methylester and D-F5-Phe-Gln-Trp-Ala-Val-D-Ala-His-Leu-methylester were examined for their abilities to displace ^125I-labeled bombesin from rat pancreatic acini cells and to inhibit amylase release from these cells produced by bombesin itself.

swiss 3T3 cells = swiss 3T3 cells (Mus musculus, UniProt P21729); test: Bombesin-stimulated [3H]thymidine uptake by cultured 3T3 cells; format: cell-based, murine; conditions: Table 1
Method: Phase 1—3T3 Peptide Stimulated [^3H] Thymidine Uptake Assay
Cell Culture. Stock cultures of swiss 3T3 cells are grown in Dulbecco's Modified Eagles Medium (DMEM) supplemented with 10% fetal calf serum in humidified atmosphere of 10% CO2/90% air at 37° C. For experimental use, the cells are seeded into 24-well cluster trays and used four days after she last change of medium. The cells are arrested in the G1/G0 phase of the cell cycle by changing to serum-free DMEM 24 hours prior to the thymidine uptake assay.
Assay of DNA Synthesis. The cells are washed twice with 1 ml aliquots of DMEM (-serum) then incubated with DMEM (-serum), 0.5 μM [methyl-^3H] thymidine (20 Ci/mmole, New England Nuclear), bombesin (3 nM), and initially four concentrations of the test compounds (1, 10, 100, 1000 nM) in a final volume of 1.0 ml. After 28 hours at 37° C., [methyl-^3H] thymidine incorporation into acid-insoluble pools is assayed as follows. The cells are washed twice with ice-cold 0.9% NaCl (1 ml aliquots), and acid soluble radioactivity is removed by a 30 min. (4° C.) incubation with 5% trichloroacetic acid (TCA). The cultures are then washed once (1 ml) with 95% ethanol and solubilized by a 30 min. incubation (1 ml) with 0.1N NaOH. The solubilized material is transferred to vials containing 10 ml ScintA (Packard), and the radioactivity is determined by liquid scintillation spectrometry.
(§1) A number of analogs of bombesin or GRP, each containing a non-peptide bond or a statine, AHPPA, or ACHPA, β-amino acid, or γ-amino acid residue, can be synthesized and tested in one or more of the above-described Phase 1-7 assays; the results of Phase 1 and 2 tests are given in Table 1 attached hereto. […] (3T3 GRP receptor and thymidine uptake data are expressed in IC50 (nM).) Table 1 also gives results for non-peptide bond-containing analogs of one other naturally-occurring peptide, Neuromedin C, whose C-terminal seven amino acids are similar to those of bombesin and GRP. (In Table 1, “Litorin” indicates a 9 residue peptide analog or its derivative, whereas “Neuromedin C” indicates a 10 residue analog or its derivative.)

[3] = biological target: T2, 3T3 fibroblast bombesin receptors (3T3 GRP receptor) (Mus musculus, UniProt P21729); test: In vitro inhibition of [125I]GRP binding to 3T3 fibroblast bombesin receptors; design: species or system murine; conditions: for activity in the 3T3 GRP receptor binding assay (in words): Table 1
T2 construct: Membranes from various tissues (rat brain, rat pancreas, rat anterior pituitary, SCLC, 3T3 cells) are prepared by homogenization; endogenous in cells; host or cells: 3T3 fibroblasts (membrane preparation)
Method: Phase 4—In Vitro Inhibition of [^125I] Gastrin Releasing Peptide (GRP) Binding to Bombesin Receptors
Membranes from various tissues (rat brain, rat pancreas, rat anterior pituitary, SCLC, 3T3 cells) are prepared by homogenization in 50 mM TrisHCl containing 0.1% bovine serum albumin and 0.1 mg/ml bacitracin followed by two centrifugations (39,000×g×15 min., 4° C.) with an intermediate resuspension in-fresh buffer. For assay, aliquots […] are incubated with 0.5 nM [^125I]GRP (˜2000 Ci/mmol, Amersham Corp.) and various concentrations of the test compounds in a final volume of 0.5 ml. After a 30 minute incubation at 4° C., the binding reaction is terminated by rapid filtration through Whatman GF/C filters that have been pre-soaked in 0.3% aqueous polethyleneimine to reduce the level of nonspecific binding. The filters and tubes are washed three times with 4 ml aliquots of ice-cold buffer, and the radioactivity trapped on the filters is counted by gamma-spectrometry. Specific binding is defined as the total. [^125I]GRP bound minus that bound in the presence of 1000 nM. bombesin or a related peptide.
as §1

[4] = test system: rat anterior pituitary cells; test: Growth hormone release from primary culture of rat anterior pituitary cells (agonist potency); format: cell-based; conditions: GH release, relative to GRF(1-29)NH2 = 100; 4-point assay
Method: Phase 7—Inhibition of Growth Hormone Release
Anterior pituitaries from adult male rats, weighing 200-250 g and housed under controlled conditions (lights on from 0500-1900 h), were dispersed using aseptic technique by a previously described trypsin/DNase method (Heiman et al., Endocrinology, 1985, 116, 410) derived from other methods (Hoefer et al., Mol. Cell. Endocrinol., 1984, 35, 229).
The dispersed cells were diluted with sterile-filtered Dulbecco's modified Eagle medium (MEM) (Gibco Laboratories, Grand Island, N.Y. (GIBCO)), which was supplemented with fetal calf serum (2.5%; GIBCO), horse serum (3%; GIBCO), fresh rat serum (10% stored on ice for no longer than 1 h) from the pituitary donors, MEM nonessential amino acids (1%; GIBCO), gentamycin (10/mg/mL; Sigma) and nystatin (10,000 U/mL; GIBCO). The cells were counted with a hemacytometer (approximately 2,000,000 cells per pituitary) and randomly plated at a density of 200,000 per well (Co-star cluster 24; Rochester Scientific Co., Rochester, N.Y.). […]
Growth hormone (GH) in plasma and media was measured by a standard double antibody radioimmunoassay using components supplied by the NIDDK and the National Hormone and Pituitary Program, University of Maryland School of Medicine. […] Potencies and 95% confidence intervals were calculateds by 4-point assay (Pugsley, Endocrinology, 1946, 39, 161). […]

[5] = biological target: bombesin receptor of rat pancreatic acini cells (rat) (UniProt P52500); test: displacement of 125I-labeled bombesin from rat pancreatic acini cells
[6] = biological target: bombesin receptor of rat pancreatic acini cells (rat) (UniProt P52500)
[7] = biological target: 3T3 fibroblast bombesin receptors (murine (3T3 murine fibroblasts), UniProt P21729); test: inhibition of [125I]GRP binding to 3T3 cell membranes

3T3 fibroblast bombesin receptors (murine (3T3 murine fibroblasts)), sequence (P21729 whole entry): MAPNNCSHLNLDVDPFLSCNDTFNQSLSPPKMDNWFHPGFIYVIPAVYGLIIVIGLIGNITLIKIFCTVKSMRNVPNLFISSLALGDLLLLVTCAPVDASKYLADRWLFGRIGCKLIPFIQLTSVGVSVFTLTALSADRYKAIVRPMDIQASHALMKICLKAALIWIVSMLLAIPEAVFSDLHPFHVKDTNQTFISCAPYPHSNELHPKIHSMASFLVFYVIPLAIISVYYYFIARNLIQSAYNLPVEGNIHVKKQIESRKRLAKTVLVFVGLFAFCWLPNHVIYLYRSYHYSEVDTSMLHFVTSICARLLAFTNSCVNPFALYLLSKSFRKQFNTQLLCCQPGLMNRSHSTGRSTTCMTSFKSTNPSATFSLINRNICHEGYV
swiss 3T3 cells, sequence (P21729 whole entry): as above
T2 sequence (P21729 whole entry): as above
T1 sequence (P52500 whole entry): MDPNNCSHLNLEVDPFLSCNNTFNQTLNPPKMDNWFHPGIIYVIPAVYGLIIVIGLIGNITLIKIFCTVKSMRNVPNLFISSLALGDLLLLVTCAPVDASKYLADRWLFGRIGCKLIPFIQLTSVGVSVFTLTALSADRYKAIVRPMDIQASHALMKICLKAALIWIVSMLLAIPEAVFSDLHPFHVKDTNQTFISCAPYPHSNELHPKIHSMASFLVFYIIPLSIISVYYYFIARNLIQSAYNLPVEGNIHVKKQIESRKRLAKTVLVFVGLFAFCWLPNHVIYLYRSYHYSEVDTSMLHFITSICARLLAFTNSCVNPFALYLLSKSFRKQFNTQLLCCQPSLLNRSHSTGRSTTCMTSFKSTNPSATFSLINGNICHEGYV

BIM-26182, D-Cpa-Gln-Trp-Ala-Val-Gly-His-β-Leu-NH2 (Litorin analog) (peptide)
bombesin-stimulated [3H]Thymidine uptake, IC50 [1]: 4.77 nM
IC50 [2]: 0.88 nM

COC(=O)[C@H](CC(C)C)NC(=O)[C@H](Cc1c[nH]cn1)NC(=O)[C@@H](C)NC(=O)[C@@H](NC(=O)[C@H](C)NC(=O)[C@H](Cc1c[nH]c2ccccc12)NC(=O)[C@H](CCC(N)=O)NC(=O)[C@H](N)Cc1c(F)c(F)c(F)c(F)c1F)C(C)C [D-F5-Phe-Gln-Trp-Ala-Val-D-Ala-His-Leu-methylester] (H-[dPhe(F5)]QWAV[dA]HL-OMe)
IC50 (bombesin receptor): 5 to 10 nM

CC(C)C[C@@H](CN[C@@H](CC(C)C)C(N)=O)NC(=O)[C@H](Cc1c[nH]cn1)NC(=O)CNC(=O)[C@@H](NC(=O)[C@H](C)NC(=O)[C@H](Cc1c[nH]c2ccccc12)NC(=O)[C@H](Cc1c[nH]cn1)NC(=O)[C@H](CC(N)=O)NC(=O)CN)C(C)C [BIM-26092, Gly-Asn-His-Trp-Ala-Val-Gly-His-Leuψ[CH2NH]Leu-NH2] (H-GNHWAVGH-X2)
activity in the 3T3 thymidine uptake assay (in words) (swiss 3T3 cells): antagonists
activity in the 3T3 GRP receptor binding assay (in words) [3]: antagonists

BIM-26136, D-Nal-Gln-Trp-Ala-Val-Gly-His-Leuψ[CH2NH]Phe-NH2 (Litorin analog) (peptide)
bombesin-stimulated [3H]Thymidine uptake, IC50 [1]: 3.3 nM
IC50 [2]: 1.4 nM

CC(C)C[C@@H](CN[C@@H](CC(C)C)C(N)=O)NC(=O)[C@H](Cc1c[nH]cn1)NC(=O)[C@@H](C)NC(=O)[C@@H](NC(=O)[C@H](C)NC(=O)[C@H](Cc1c[nH]c2ccccc12)NC(=O)[C@H](Cc1c[nH]cn1)NC(=O)[C@H](CC(N)=O)NC(=O)[C@@H](C)N)C(C)C [BIM-26105, D-Ala-Asn-His-Trp-Ala-Val-D-ALa-His-Leuψ[CH2CH]Leu-NH2] (H-[dA]NHWAV[dA]H-X2; N-terminus assumed)
activity in the 3T3 thymidine uptake assay (in words) (swiss 3T3 cells): antagonists
IC50 [3]: 107 nM
activity in the 3T3 GRP receptor binding assay (in words) [3]: antagonists

GRF(1-29)NH2 [reference compound]
Potency (%) [4]: 100%

The analogues (D-Phe-Gln-Trp-Ala-Val-N-methyl-D-Ala-His-Leu-methylester and D-F5-Phe-Gln-Trp-Ala-Val-D-Ala-His-Leu-methylester)
half-maximal effective dose [5]: 5 to 10 nM
inhibition of amylase release produced by bombesin, half-maximal effective dose [6]: 5 to 10 nM

CC(C)C[C@@H](CN[C@@H](CC(C)C)C(N)=O)NC(=O)[C@H](Cc1c[nH]cn1)NC(=O)[C@@H](C)NC(=O)[C@@H](NC(=O)[C@H](C)NC(=O)[C@H](Cc1c[nH]c2ccccc12)NC(=O)[C@H](Cc1c[nH]cn1)NC(=O)[C@@H](C)N)C(C)C [BIM-26106, desGly-D-Ala-His-Trp-Ala-Val-D-ALa-His-Leuψ[CH2CH]Leu-NH2] (H-[dA]HWAV[dA]H-X2; N-terminus assumed)
activity in the 3T3 thymidine uptake assay (in words) (swiss 3T3 cells): antagonists
activity in the 3T3 GRP receptor binding assay (in words) [3]: antagonists
IC50 ([3]; inhibition of [125I]GRP binding, 3T3 membranes, read-out: 3T3 GRP Receptor IC50): 401 nM

COC(=O)[C@H](CC(C)C)NC(=O)[C@H](Cc1c[nH]cn1)NC(=O)[C@@H](C)N(C)C(=O)[C@@H](NC(=O)[C@H](C)NC(=O)[C@H](Cc1c[nH]c2ccccc12)NC(=O)[C@H](CCC(N)=O)NC(=O)[C@H](N)Cc1ccccc1)C(C)C [D-Phe-Gln-Trp-Ala-Val-N-methyl-D-Ala-His-Leu-methylester] (H-[dF]QWAV[dNMeA]HL-OMe)
IC50 (bombesin receptor): 5 to 10 nM

BIM-26114, D-Nal-Gln-Trp-Ala-Val-Gly-His-Leuψ[CH2NH]Leu-NH2 (Litorin analog) (peptide)
bombesin-stimulated [3H]Thymidine uptake, IC50 [1]: 28 nM
IC50 [2]: 23.5 nM

[pGlu]QWAVGHLL-NH2 (also: reduced bond ψ[CH2NH] between Leu8 and Leu9) [BIM-26101, pGlu-Gln-Trp-Ala-Val-Gly-His-Leuψ[CH2NH]Leu-NH2 (Litorin analog)]
bombesin-stimulated [3H]Thymidine uptake, IC50 [1]: 296 nM
IC50 [7]: 118 nM

B1: BIM-26100, pGlu-Gln-Trp-Ala-Val-Gly-His-Pheψ[CH2NH]Leu-NH2 (Litorin analog) (peptide)
peptide: EQWAVGHFL
modifications: pGlu at 1 (written E); reduced peptide bond ψ[CH2NH] between Phe 8 and Leu 9; C-terminal amide
bombesin-stimulated [3H]Thymidine uptake, IC50 [1]: 26 nM
IC50 [7]: 23 nM

GNHWAVGHLL-NH2 (also: reduced bond ψ[CH2NH] between Leu9 and Leu10) [BIM-26092, Gly-Asn-His-Trp-Ala-Val-Gly-His-Leuψ[CH2NH]Leu-NH2 (Neuromedin C analog)]
bombesin-stimulated [3H]Thymidine uptake, IC50 [1]: 466 nM
IC50 [7]: 242 nM

B2: BIM-26120, pGlu-Gln-Trp-Ala-Val-Gly-His-Sta-NH2 (Litorin analog) (peptide)
peptide: [pGlu]QWAVGH[Sta]-NH2
SMILES: CC(C)C[C@H](NC(=O)[C@H](Cc1c[nH]cn1)NC(=O)CNC(=O)[C@@H](NC(=O)[C@H](C)NC(=O)[C@H](Cc1c[nH]c2ccccc12)NC(=O)[C@H](CCC(N)=O)NC(=O)[C@@H]1CCC(=O)N1)C(C)C)[C@@H](O)CC(N)=O
bombesin-stimulated [3H]Thymidine uptake, IC50 [1]: 165 nM
IC50 [7]: 150 nM

FQWAVGHL (D-Phe at 1; C-terminal amide) [BIM-26122, D-Phe-Gln-Trp-Ala-Val-Gly-His-Leu-NH2 (Litorin analog)]
IC50 [7]: 5.9 nM
